Test results reported in publication doi:10.1101/093054 (bioRxiv, 2016).

T1: SPD-5::TagRFP (C. elegans, UniProt P91349 1-1198)
T1 sequence (looked up): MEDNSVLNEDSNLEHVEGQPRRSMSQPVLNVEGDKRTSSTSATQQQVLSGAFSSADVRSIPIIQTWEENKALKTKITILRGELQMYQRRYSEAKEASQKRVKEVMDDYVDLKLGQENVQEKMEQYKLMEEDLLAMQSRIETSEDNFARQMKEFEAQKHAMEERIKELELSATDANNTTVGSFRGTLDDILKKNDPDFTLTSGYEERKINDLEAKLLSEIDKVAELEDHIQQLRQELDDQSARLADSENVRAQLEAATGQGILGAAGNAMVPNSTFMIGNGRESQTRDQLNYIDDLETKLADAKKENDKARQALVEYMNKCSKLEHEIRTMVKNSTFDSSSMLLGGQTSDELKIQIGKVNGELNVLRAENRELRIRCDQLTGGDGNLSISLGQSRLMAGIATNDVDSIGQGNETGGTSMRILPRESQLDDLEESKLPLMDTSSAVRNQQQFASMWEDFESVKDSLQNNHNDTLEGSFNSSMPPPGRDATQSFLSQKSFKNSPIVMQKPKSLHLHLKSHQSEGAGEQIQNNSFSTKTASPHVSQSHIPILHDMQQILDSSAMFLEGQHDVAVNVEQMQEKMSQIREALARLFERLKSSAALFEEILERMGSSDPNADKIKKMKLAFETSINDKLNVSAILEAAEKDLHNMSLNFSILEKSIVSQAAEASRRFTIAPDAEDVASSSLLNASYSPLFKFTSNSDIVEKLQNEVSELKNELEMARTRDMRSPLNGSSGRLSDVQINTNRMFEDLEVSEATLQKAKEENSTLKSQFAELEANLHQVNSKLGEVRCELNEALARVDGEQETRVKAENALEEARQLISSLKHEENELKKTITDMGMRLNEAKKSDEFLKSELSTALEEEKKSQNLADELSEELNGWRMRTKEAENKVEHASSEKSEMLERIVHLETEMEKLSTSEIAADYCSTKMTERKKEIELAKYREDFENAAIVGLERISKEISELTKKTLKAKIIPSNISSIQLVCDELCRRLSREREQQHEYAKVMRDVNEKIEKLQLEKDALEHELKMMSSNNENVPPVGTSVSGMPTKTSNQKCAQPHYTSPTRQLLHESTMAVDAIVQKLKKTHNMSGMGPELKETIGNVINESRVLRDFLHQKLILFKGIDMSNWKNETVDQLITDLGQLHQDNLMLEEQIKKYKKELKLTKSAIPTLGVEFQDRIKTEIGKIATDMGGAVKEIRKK

T2: SPD-5::TagRFP (C. elegans), P91349
T2 chain: T1 sequence (looked up)

B1: PLK-1::GFP, P34331 1-648 (enzyme)
chain: MNRLPNIAKPPQKSNQRKEKAPPEVPALIADKDRGTYYEKGRFLGKGGFAHCYELTNRATREVVAGKVVPKSMLVKQYQRDKMTQEVQIHRELGHINIVKLFNFFEDNLNVYITLELCARRSLMELHKRRKAVTEPEARYFTHQIVDGVLYLHDLNIIHRDMKLGNLFLNDDLVVKIGDFGLATTVNGDERKKTLCGTPNYIAPEVLNKAGHSFEVDIWAVGCILYILLFGQPPFESKSLEETYSRIRHNNYTIPSIATQPAASLIRKMLDPEPTRRPTAKQVQRDGFFKSGFMPTRLPVSCLTMVPKFGGHETSMMEENVAPRGVDARSQRPLNGRAGLSALPQHIVSNNADRERAQQQAAEATFREPEDAYLSQLFHQVAVLLEQRIPGLEEEEAALDGYQSPECLPVFWISKWVDYSDKYGIGYQLCDNSVGVLFNDNSRIMLDQAGNELTYIEKSNKEHYFSMHSGEMPGLLNKKVTLLKYFRSYMNDHLVKAGEGSEQRAGDDLARLPTLRVWFRTKSAIVLHLSNGTVQINFFNDHVKMMMCPLMQAVTFIDQNKRMLTYKLNNLQRNGCPEKFLHRLKYAKTMIERLMSDANVVSQNPARQPDMPRSMAAARSASAGSRGPNQAASHLPQSASGSNIHPRR
B2: ZYG-9::GFP (natural protein, C. elegans, UniProt G5EEM5 1-1415, looked up)
chain: MSNWDYLDEVDILPKLPPNFDELRESKKWQERKEALEALLKVLTDNERLSTKASYAELIGHLQMVLAKDANINCQALAAKCIGKFATGLRAKFSSFAGPLLPVIFEKMKEKKPMLREPLVDCSNEVGRTMQSLETGQEDILAALAKPNPQIKQQTALFVARQLDLVVPAKQPKGFIKAVVPVFGKLTGDADQDVREASLQGLGAVQRIIGDKNVKNLLGDASSDEGKMKKIGEYAEKSTASFAEEQAKNAPPVAPTSSTPSASAASGDPSGGTATAVVSSGAPVAEADPWDFLDAFDVLSKMPDGFDTNIESKKWQERKEALEGLLQLITANPKLDPKANYGALVERLQKVLEKDANINVAALAANCITGIANGLRTKFQPFAVSVTPIIFEKFKEKKPTLRDPLVACIDAVVATTNLEAVGEIVLAALGKPNPSIKTQTDLFLQRCFMKLNSQTMPKKTLKTLIPSLIKHSGDSDSEVREASYAAMGAMMRAIGEKPSLQLLADIASDNLKMSKIKEFHQKALDEAGPAEIAEMVKSIHKADAPPAAAPPKKTAPPKKQPEDEEVVEEEDEPLKPPPGDKKKKVPVKENEENEPPVVAPKAELLLSDNEDKKQRIKEEKQLKLVKWNFQAPTDEHISQLQTLLGNQAKVSLMSQLFHKDFKQHLAALDSLVRLADTSPRSLLSNSDLLLKWCTLRFFETNPAALIKVLELCKVIVELIRDTETPMSQEEVSAFVPYLLLKTGEAKDNMRTSVRDIVNVLSDVVGPLKMTPMLLDALKSKNARQRSECLLVIEYYITNAGISPLKSLSVEKTVAPFVGDKDVNVRNAAINVLVACFKFEGDQMWKAAGRMADKDKSLVEERIKRTGVKPGSGVVTSPPTGGPKILVPQQQGSVVRRPASRSRTREPEPEEVQSDTFTIRQDTMPPKTSSRYALRDDVFSSAMGRLDGTQVITPPQPVNGWSNNTFQMKRTNSSSSISSIDTSDQIQRSINNISSSLADVAQDAMFQVTYVLNQPEQRHLVDRRADLVFRASAAQLDLVIEEFNAGRDVSGTMDACTQMLFILMGGVETEHGLEPLNASPDTVKAIISSVLRCIIQIGNTESGYGMARSLNRLAMRLIYRVELSNLLCGLILAMTESLQMNTGITELVSKLSSKWCDELEKRRAQLRASDIVDSFNAFYVCALTELKMDISDSHILIVDNYLERVILQQGDVVLDAARRLSRPHMHLTSMINKILQMMRERKIDPIMPGTLEARMPQEDEAVVVRSGVQVSIDNILRDTSMAVKHIEQLNILIASSDRSWNEYMEYLKNNPMGELIKELVGECSRKKRIDFNLSHVVKSSMAVFKAMAATGPVQEEGRITPTDINRMDTMIVGTPLSRGDATITRARGNMIRPKRTTLSRDQMANIRHTLDRVKNH
B3: GFP::SPD-2 (natural protein, C. elegans, UniProt P91870 1-824, looked up)
chain: MEDDAPMNLCNEQFEEIEDSPIDDNDNESFYNADGDVELEEEEVHETPKNFKNGGRFKTNMTNPKVNDLTTIEEKNEDLRSAASSRSASRPASVMSDKSFSSQFEFQSGGENAIEEYTNQVFADENKADLLFPETSKFMNGASPPKDKHHSWEPSIHHYDKQPPPDIQTNSPVFGNLNHRKNKLIPQARAKPGANDNEIVERDNDENVPTTSDKSAFITSPMNSTNHDEKTSTPKRPTNRKIGQYQGPNFDLSSIYVGSPQHQNTSISTGQQMPTSSYSHAHSETMMTNQTINESMVRRVLNGNNKNQDLFAALEEARKRRAAQPSKPDFRINTTRTRVPIKPTSARHSGNVVSSTSNDNTTAASSKDLTTSRKAMETFRQNASMADATNSNTASMTSILSTISTARTDISRSSRNHGGGFSNTSVSTVIPANNGNVSLSHGRDGRDSVSSVRTMSRASSTSTVYAGSTFSGVSKPLRIHAKRVAFGCVAVGETLRVEVEVENISDRQCLVRASTDSTTPVYQILDNKLTMVDPKKSIKFQVSFSPSSVGRYQVIMSIEVPAQNFIHKIPMWGNGGIAKFVPTSPDLQQTINQSEYAMCTSCAKRISFKISNSAGTRDGFAMIKVFDSAMRQLPDGCVAFFPAPGFIVKKKSDKRVDIRIDSSYIDLHDENNFRTSSSLSTASTTSSFQRRILPGAKFFVHVVWGEETMRTRLRLLEVRTGQHQLIDGHDFTSFQFSDEEVLRAVPVGFPAIKPEDRDLFAASYRSFFINFFTSTTEFRAATSRKKKEICSNDDSTLLETTAFRNQTFVNDVTIVPNTRFSNRK
B4: EB1-GFP (natural protein, UniProt Q15691 1-268, looked up)
chain: MAVNVYSTSVTSDNLSRHDMLAWINESLQLNLTKIEQLCSGAAYCQFMDMLFPGSIALKKVKFQAKLEHEYIQNFKILQAGFKRMGVDKIIPVDKLVKGKFQDNFEFVQWFKKFFDANYDGKDYDPVAARQGQETAVAPSLVAPALNKPKKPLTSSSAAPQRPISTQRTAAAPKAGPGVVRKNPGVGNGDDEAAELMQQVNVLKLTVEDLEKERDFYFGKLRNIELICQENEGENDPVLQRIVDILYATDEGFVIPDEGGPQEEQEEY

Experiments:
SPD-5::TagRFP = target: T1, SPD-5::TagRFP; experiment: partitioning into droplets by fluorescence microscopy
[1] = target: T2, SPD-5::TagRFP (C. elegans), P91349; experiment: as above; settings: remark: other sources report otherwise

Molecule	partition coefficient (droplet vs. bulk) (SPD-5::TagRFP)	partition coefficient (droplet vs. bulk) [1]
TPXL-1::GFP (natural protein)	59	
B1		19.8
B2	101	
B3	67	
B4	3.2	
